The results in this text go back to paper PMC11387410.

In assay [1] the target is LgBiT-BOK-TMD (transmembrane domain of BOK as NanoBiT fusion) (UniProt Q9UMX3). Put plainly: split reporter (BiFC, NanoBiT); NanoBiT split luciferase in living HEK293FT cells; LgBiT-TMD and SmBiT-TMD plasmids transfected 1:1, 24 h; cells in Opti-MEM, 5 uM coelenterazine-h, luminescence 30 min after substrate; absolute RLU (Fig. 1C) or normalized to mTurquoise2 fluorescence and set relative to BAX-TMD/BAX-TMD = 1 (Fig. 1F, 6C).
Sequence of UniProt Q9UMX3 (Q9UMX3 whole entry, the tested form may be a part): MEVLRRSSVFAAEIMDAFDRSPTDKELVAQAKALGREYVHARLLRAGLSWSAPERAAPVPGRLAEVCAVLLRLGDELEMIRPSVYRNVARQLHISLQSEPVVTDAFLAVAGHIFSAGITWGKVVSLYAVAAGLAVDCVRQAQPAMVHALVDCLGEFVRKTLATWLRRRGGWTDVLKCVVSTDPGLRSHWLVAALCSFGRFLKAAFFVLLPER

The target of assay [2] is BAX-TMD (transmembrane domain of BAX) as NanoBiT fusion (UniProt Q07812). The description is as above.
Assay [3] has as its target LgBiT-BOK-TMD (transmembrane domain of BOK as NanoBiT fusion) (UniProt Q9UMX3). Put plainly: split reporter (BiFC, NanoBiT); NanoBiT split luciferase in living MCF-7 cells; transfected 24 h; luminescence relative to the positive control BAX-TMD/BAX-TMD.

On to “SmBiT-BCL-2-TMD V226A I230A (from UniProt P10415 1-239) (domain or fragment)”, for which the relative normalized luminescence (BAX-TMD/BAX-TMD = 1) (relative to the positive control) in assay [1] stood at 0.21.

On to “SmBiT-BCL-2-TMD L223A V226A I230A (from UniProt P10415 1-239) (domain or fragment)”, for which, in assay [1], the relative normalized luminescence (BAX-TMD/BAX-TMD = 1) (relative to the positive control) stood at 0.13.

In assay [1], “SmBiT-BCL-2-TMD I230A (from UniProt P10415 1-239) (domain or fragment)” came in with a relative normalized luminescence (BAX-TMD/BAX-TMD = 1) (relative to the positive control) of 0.21.

Regarding “SmBiT-BCL-2-TMD L223A V226A (from UniProt P10415 1-239) (domain or fragment)”, in assay [1], the relative normalized luminescence (BAX-TMD/BAX-TMD = 1) (relative to the positive control) was 0.21.

On to “BAX-TMD (transmembrane domain of BAX) as NanoBiT fusion (from UniProt Q07812 1-192) (domain or fragment)”, for which the luminescence in assay [2] was found to be 16600 RLU.

In assay [1], “SmBiT-BCL-2-TMD (transmembrane domain of BCL-2 as NanoBiT fusion) (from UniProt P10415 1-239) (domain or fragment)” displayed a normalized luminescence as percent of the positive control (BAX-/BAX-TMD) (% of the positive control) of 46 and a relative normalized luminescence (BAX-TMD/BAX-TMD = 1) (relative to the positive control) of 0.47. In addition, the normalized luminescence as percent of the positive control (BAX-TMD/BAX-TMD) (% of the positive control) in assay [3] came to 30.
